Experimental data taken from article PMC12212138, “Crystal structure and mutagenesis of a nucleic acid–binding BRCT domain in human PARP4”.

What was measured:
Conditions in all cases: protein: recombinant; tags: N-terminal His-SUMO removed by TEV; label: 5'-6-FAM; predicted intramolecular fold
PARP4 BRCT-WGR-CAT WT [1] = target: T1, PARP4 BRCT-WGR-CAT WT (human, UniProt Q9UKK3 1-573); assay: FP; 3 or 15 nM probe; FP: 50 mM Tris pH 7.5, 50 mM NaCl, 1 mM MgCl2, 0.05% NP40, 2 mM DTT, 5% glycerol, 25 ug/ml BSA, room temp 30 min; EMSA: 50 mM Tris pH 7.5, 50 mM NaCl, 4% Ficoll PM400, 0.05% NP40, 2 mM DTT, 0-18 uM protein, room temp 30 min, gel at 4 C
T1 sequence: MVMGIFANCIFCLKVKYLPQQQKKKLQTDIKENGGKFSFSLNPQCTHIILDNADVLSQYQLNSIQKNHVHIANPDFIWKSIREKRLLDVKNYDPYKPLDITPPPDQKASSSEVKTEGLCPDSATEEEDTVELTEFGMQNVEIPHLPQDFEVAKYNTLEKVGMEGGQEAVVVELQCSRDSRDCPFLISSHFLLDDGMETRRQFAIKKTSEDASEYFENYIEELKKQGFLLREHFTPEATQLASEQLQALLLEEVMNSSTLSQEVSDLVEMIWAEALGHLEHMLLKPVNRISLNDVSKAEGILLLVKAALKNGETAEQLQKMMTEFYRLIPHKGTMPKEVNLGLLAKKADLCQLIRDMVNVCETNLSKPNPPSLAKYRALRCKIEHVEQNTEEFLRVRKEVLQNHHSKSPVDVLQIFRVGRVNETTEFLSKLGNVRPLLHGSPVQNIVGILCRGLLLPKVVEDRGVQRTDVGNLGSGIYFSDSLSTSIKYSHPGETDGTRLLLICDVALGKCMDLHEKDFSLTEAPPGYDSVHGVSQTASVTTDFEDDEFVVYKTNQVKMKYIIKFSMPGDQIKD

PARP4 BRCT K31Q = target: T2, PARP4 BRCT K31Q (human, UniProt Q9UKK3 1-100, K31Q); assay: EMSA; 20 nM probe; FP: 50 mM Tris pH 7.5, 50 mM NaCl, 1 mM MgCl2, 0.05% NP40, 2 mM DTT, 5% glycerol, 25 ug/ml BSA, room temp 30 min; EMSA: 50 mM Tris pH 7.5, 50 mM NaCl, 4% Ficoll PM400, 0.05% NP40, 2 mM DTT, 0-18 uM protein, room temp 30 min, gel at 4 C
T2 sequence: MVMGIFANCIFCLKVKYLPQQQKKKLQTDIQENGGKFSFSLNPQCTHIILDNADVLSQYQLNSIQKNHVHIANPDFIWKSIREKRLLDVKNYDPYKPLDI

PARP4 BRCT F39A = target: T3, PARP4 BRCT F39A (human, UniProt Q9UKK3 1-100, F39A); assay: as above
T3 sequence: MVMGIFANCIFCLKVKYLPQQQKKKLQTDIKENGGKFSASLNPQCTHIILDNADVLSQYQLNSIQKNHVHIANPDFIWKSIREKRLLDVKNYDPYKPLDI

PARP4 BRCT WT = target: T4, PARP4 BRCT WT (human, UniProt Q9UKK3 1-100); assay: as above
T4 sequence: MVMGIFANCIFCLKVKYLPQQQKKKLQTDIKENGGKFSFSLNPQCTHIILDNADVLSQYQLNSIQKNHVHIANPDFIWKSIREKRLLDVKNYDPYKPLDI

PARP4 BRCT-WGR-CAT WT [2] = target: T1, PARP4 BRCT-WGR-CAT WT; assay: as above
PARP4 BRCT F39Q = target: T5, PARP4 BRCT F39Q (human, UniProt Q9UKK3 1-100, F39Q); assay: as above
T5 sequence: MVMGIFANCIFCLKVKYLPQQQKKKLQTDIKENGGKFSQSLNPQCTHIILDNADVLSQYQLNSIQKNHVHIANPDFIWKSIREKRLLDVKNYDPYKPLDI

B1: vtRNA1-3 (structured_RNA)
RNA: GGCUGGCUUUAGCUCAGCGGUUACUUCGCGUGUCAUCAAACCACCUCUCUGGGUUGUUCGAGACCCGCGGGCGCUCUCCAGCCCUCUU
PARP4 BRCT-WGR-CAT WT [1]
  Kd: 27 ± 9 µM
PARP4 BRCT K31Q
  Kd: 3000 ± 1000 nM
PARP4 BRCT F39A
  Kd: 600 ± 100 nM
PARP4 BRCT WT
  Kd: 500 ± 200 nM
PARP4 BRCT-WGR-CAT WT [2]
  Kd: 3000 ± 1000 nM
PARP4 BRCT F39Q
  Kd: 900 ± 500 nM
